{
  "source": "patent US20180009871A1",
  "about": "(INTARCIA THERAPEUTICS, published 2018)",
  "binders": {"B1": {"name": "Compound A1 (peptide)", "peptide": "YSHGTFTSDYSKYLD[Aib]KYAQEFV[Aib]WLEDEPSSGAPPPS-OH", "modifications": "N-terminus assumed", "SMILES": "CC(C)C[C@H](NC(=O)[C@H](Cc1ccc(O)cc1)NC(=O)[C@H](CCCCN)NC(=O)[C@H](CO)NC(=O)[C@H](Cc1ccc(O)cc1)NC(=O)[C@H](CC(=O)O)NC(=O)[C@H](CO)NC(=O)[C@@H](NC(=O)[C@H](Cc1ccccc1)NC(=O)[C@@H](NC(=O)CNC(=O)[C@H](Cc1c[nH]cn1)NC(=O)[C@H](CO)NC(=O)[C@@H](N)Cc1ccc(O)cc1)[C@@H](C)O)[C@@H](C)O)C(=O)N[C@@H](CC(=O)O)C(=O)NC(C)(C)C(=O)N[C@@H](CCCCN)C(=O)N[C@@H](Cc1ccc(O)cc1)C(=O)N[C@@H](C)C(=O)N[C@@H](CCC(N)=O)C(=O)N[C@@H](CCC(=O)O)C(=O)N[C@@H](Cc1ccccc1)C(=O)N[C@H](C(=O)NC(C)(C)C(=O)N[C@@H](Cc1c[nH]c2ccccc12)C(=O)N[C@@H](CC(C)C)C(=O)N[C@@H](CCC(=O)O)C(=O)N[C@@H](CC(=O)O)C(=O)N[C@@H](CCC(=O)O)C(=O)N1CCC[C@H]1C(=O)N[C@@H](CO)C(=O)N[C@@H](CO)C(=O)NCC(=O)N[C@@H](C)C(=O)N1CCC[C@H]1C(=O)N1CCC[C@H]1C(=O)N1CCC[C@H]1C(=O)N[C@@H](CO)C(=O)O)C(C)C"}, "B2": {"name": "Compound A2 (peptide)", "peptide": "YSHGTFTSDYSKYLD[Aib]KSAQEFV[Aib]WLEDEPSSGAPPPS-OH", "modifications": "N-terminus assumed", "SMILES": "CC(C)C[C@H](NC(=O)[C@H](Cc1ccc(O)cc1)NC(=O)[C@H](CCCCN)NC(=O)[C@H](CO)NC(=O)[C@H](Cc1ccc(O)cc1)NC(=O)[C@H](CC(=O)O)NC(=O)[C@H](CO)NC(=O)[C@@H](NC(=O)[C@H](Cc1ccccc1)NC(=O)[C@@H](NC(=O)CNC(=O)[C@H](Cc1c[nH]cn1)NC(=O)[C@H](CO)NC(=O)[C@@H](N)Cc1ccc(O)cc1)[C@@H](C)O)[C@@H](C)O)C(=O)N[C@@H](CC(=O)O)C(=O)NC(C)(C)C(=O)N[C@@H](CCCCN)C(=O)N[C@@H](CO)C(=O)N[C@@H](C)C(=O)N[C@@H](CCC(N)=O)C(=O)N[C@@H](CCC(=O)O)C(=O)N[C@@H](Cc1ccccc1)C(=O)N[C@H](C(=O)NC(C)(C)C(=O)N[C@@H](Cc1c[nH]c2ccccc12)C(=O)N[C@@H](CC(C)C)C(=O)N[C@@H](CCC(=O)O)C(=O)N[C@@H](CC(=O)O)C(=O)N[C@@H](CCC(=O)O)C(=O)N1CCC[C@H]1C(=O)N[C@@H](CO)C(=O)N[C@@H](CO)C(=O)NCC(=O)N[C@@H](C)C(=O)N1CCC[C@H]1C(=O)N1CCC[C@H]1C(=O)N1CCC[C@H]1C(=O)N[C@@H](CO)C(=O)O)C(C)C"}, "B3": {"name": "Compound A6 (peptide)", "peptide": "WSQGTFTSDYSKYLD[Aib]KRAQEFV[Aib]WLEDEPSSGAPPPS-OH", "modifications": "N-terminus assumed", "SMILES": "CC(C)C[C@H](NC(=O)[C@H](Cc1ccc(O)cc1)NC(=O)[C@H](CCCCN)NC(=O)[C@H](CO)NC(=O)[C@H](Cc1ccc(O)cc1)NC(=O)[C@H](CC(=O)O)NC(=O)[C@H](CO)NC(=O)[C@@H](NC(=O)[C@H](Cc1ccccc1)NC(=O)[C@@H](NC(=O)CNC(=O)[C@H](CCC(N)=O)NC(=O)[C@H](CO)NC(=O)[C@@H](N)Cc1c[nH]c2ccccc12)[C@@H](C)O)[C@@H](C)O)C(=O)N[C@@H](CC(=O)O)C(=O)NC(C)(C)C(=O)N[C@@H](CCCCN)C(=O)N[C@@H](CCCNC(=N)N)C(=O)N[C@@H](C)C(=O)N[C@@H](CCC(N)=O)C(=O)N[C@@H](CCC(=O)O)C(=O)N[C@@H](Cc1ccccc1)C(=O)N[C@H](C(=O)NC(C)(C)C(=O)N[C@@H](Cc1c[nH]c2ccccc12)C(=O)N[C@@H](CC(C)C)C(=O)N[C@@H](CCC(=O)O)C(=O)N[C@@H](CC(=O)O)C(=O)N[C@@H](CCC(=O)O)C(=O)N1CCC[C@H]1C(=O)N[C@@H](CO)C(=O)N[C@@H](CO)C(=O)NCC(=O)N[C@@H](C)C(=O)N1CCC[C@H]1C(=O)N1CCC[C@H]1C(=O)N1CCC[C@H]1C(=O)N[C@@H](CO)C(=O)O)C(C)C"}, "B4": {"name": "Compound A103 (peptide)", "peptide": "YSHGTFTSDYSKYLD[Aib]ARAQEFV[Aib]WLEDEPSSGAPPPS-OH", "modifications": "N-terminus assumed", "SMILES": "CC(C)C[C@H](NC(=O)[C@H](Cc1ccc(O)cc1)NC(=O)[C@H](CCCCN)NC(=O)[C@H](CO)NC(=O)[C@H](Cc1ccc(O)cc1)NC(=O)[C@H](CC(=O)O)NC(=O)[C@H](CO)NC(=O)[C@@H](NC(=O)[C@H](Cc1ccccc1)NC(=O)[C@@H](NC(=O)CNC(=O)[C@H](Cc1c[nH]cn1)NC(=O)[C@H](CO)NC(=O)[C@@H](N)Cc1ccc(O)cc1)[C@@H](C)O)[C@@H](C)O)C(=O)N[C@@H](CC(=O)O)C(=O)NC(C)(C)C(=O)N[C@@H](C)C(=O)N[C@@H](CCCNC(=N)N)C(=O)N[C@@H](C)C(=O)N[C@@H](CCC(N)=O)C(=O)N[C@@H](CCC(=O)O)C(=O)N[C@@H](Cc1ccccc1)C(=O)N[C@H](C(=O)NC(C)(C)C(=O)N[C@@H](Cc1c[nH]c2ccccc12)C(=O)N[C@@H](CC(C)C)C(=O)N[C@@H](CCC(=O)O)C(=O)N[C@@H](CC(=O)O)C(=O)N[C@@H](CCC(=O)O)C(=O)N1CCC[C@H]1C(=O)N[C@@H](CO)C(=O)N[C@@H](CO)C(=O)NCC(=O)N[C@@H](C)C(=O)N1CCC[C@H]1C(=O)N1CCC[C@H]1C(=O)N1CCC[C@H]1C(=O)N[C@@H](CO)C(=O)O)C(C)C"}, "B5": {"name": "Compound A100 (peptide)", "peptide": "YSHGTFTSDYSKYLD[Aib]KRAQEFV[Aib]WLEDE-OH", "modifications": "N-terminus assumed", "SMILES": "CC(C)C[C@H](NC(=O)[C@H](Cc1ccc(O)cc1)NC(=O)[C@H](CCCCN)NC(=O)[C@H](CO)NC(=O)[C@H](Cc1ccc(O)cc1)NC(=O)[C@H](CC(=O)O)NC(=O)[C@H](CO)NC(=O)[C@@H](NC(=O)[C@H](Cc1ccccc1)NC(=O)[C@@H](NC(=O)CNC(=O)[C@H](Cc1c[nH]cn1)NC(=O)[C@H](CO)NC(=O)[C@@H](N)Cc1ccc(O)cc1)[C@@H](C)O)[C@@H](C)O)C(=O)N[C@@H](CC(=O)O)C(=O)NC(C)(C)C(=O)N[C@@H](CCCCN)C(=O)N[C@@H](CCCNC(=N)N)C(=O)N[C@@H](C)C(=O)N[C@@H](CCC(N)=O)C(=O)N[C@@H](CCC(=O)O)C(=O)N[C@@H](Cc1ccccc1)C(=O)N[C@H](C(=O)NC(C)(C)C(=O)N[C@@H](Cc1c[nH]c2ccccc12)C(=O)N[C@@H](CC(C)C)C(=O)N[C@@H](CCC(=O)O)C(=O)N[C@@H](CC(=O)O)C(=O)N[C@@H](CCC(=O)O)C(=O)O)C(C)C"}, "B6": {"name": "Compound A101 (peptide)", "peptide": "YGHGTFTSDHSKYLD[Aib]KRAQEFVKWLEDE-OH", "modifications": "N-terminus assumed", "SMILES": "CC(C)C[C@H](NC(=O)[C@H](Cc1c[nH]c2ccccc12)NC(=O)[C@H](CCCCN)NC(=O)[C@@H](NC(=O)[C@H](Cc1ccccc1)NC(=O)[C@H](CCC(=O)O)NC(=O)[C@H](CCC(N)=O)NC(=O)[C@H](C)NC(=O)[C@H](CCCNC(=N)N)NC(=O)[C@H](CCCCN)NC(=O)C(C)(C)NC(=O)[C@H](CC(=O)O)NC(=O)[C@H](CC(C)C)NC(=O)[C@H](Cc1ccc(O)cc1)NC(=O)[C@H](CCCCN)NC(=O)[C@H](CO)NC(=O)[C@H](Cc1c[nH]cn1)NC(=O)[C@H](CC(=O)O)NC(=O)[C@H](CO)NC(=O)[C@@H](NC(=O)[C@H](Cc1ccccc1)NC(=O)[C@@H](NC(=O)CNC(=O)[C@H](Cc1c[nH]cn1)NC(=O)CNC(=O)[C@@H](N)Cc1ccc(O)cc1)[C@@H](C)O)[C@@H](C)O)C(C)C)C(=O)N[C@@H](CCC(=O)O)C(=O)N[C@@H](CC(=O)O)C(=O)N[C@@H](CCC(=O)O)C(=O)O"}, "B7": {"name": "Compound A102 (peptide)", "peptide": "YSHGTFTSDYSKWLD[Aib]KRAQEFVKWLEDE-OH", "modifications": "N-terminus assumed", "SMILES": "CC(C)C[C@H](NC(=O)[C@H](Cc1c[nH]c2ccccc12)NC(=O)[C@H](CCCCN)NC(=O)[C@@H](NC(=O)[C@H](Cc1ccccc1)NC(=O)[C@H](CCC(=O)O)NC(=O)[C@H](CCC(N)=O)NC(=O)[C@H](C)NC(=O)[C@H](CCCNC(=N)N)NC(=O)[C@H](CCCCN)NC(=O)C(C)(C)NC(=O)[C@H](CC(=O)O)NC(=O)[C@H](CC(C)C)NC(=O)[C@H](Cc1c[nH]c2ccccc12)NC(=O)[C@H](CCCCN)NC(=O)[C@H](CO)NC(=O)[C@H](Cc1ccc(O)cc1)NC(=O)[C@H](CC(=O)O)NC(=O)[C@H](CO)NC(=O)[C@@H](NC(=O)[C@H](Cc1ccccc1)NC(=O)[C@@H](NC(=O)CNC(=O)[C@H](Cc1c[nH]cn1)NC(=O)[C@H](CO)NC(=O)[C@@H](N)Cc1ccc(O)cc1)[C@@H](C)O)[C@@H](C)O)C(C)C)C(=O)N[C@@H](CCC(=O)O)C(=O)N[C@@H](CC(=O)O)C(=O)N[C@@H](CCC(=O)O)C(=O)O"}},
  "note": "Where no end group is shown, it is not given here. [ ]: non-standard residue; d: D form. Aib = CC(C)(N)C(=O)O",
  "data": [
    {"molecular_target": "T1, human glucagon receptor (GCGR) (human, UniProt P47871 26-477)", "assay": "cell-based or functional assay", "units": {"hGCGR pEC50 (cAMP) mean (n = 9): 11 point curve starting at 1 uM": "pEC50"}, "values": [
      {"binder": "B1", "hGCGR pEC50 (cAMP) mean (n = 9): 11 point curve starting at 1 uM": 12.3},
      {"binder": "B2", "hGCGR pEC50 (cAMP) mean (n = 9): 11 point curve starting at 1 uM": 11.7},
      {"binder": "YSQGTFTSDYSKYLDAARAQEFVKWLEDEPKSKSPPPS-NH2", "note": "[Compound A3]", "hGCGR pEC50 (cAMP) mean (n = 9): 11 point curve starting at 1 uM": 12.1},
      {"binder": "B3", "hGCGR pEC50 (cAMP) mean (n = 9): 11 point curve starting at 1 uM": 11.7}
    ]},
    {"molecular_target": "T2, human GLP-1 receptor (GLP-1R) (human, UniProt P43220 24-463)", "T2 sequence (P43220 24-463)": "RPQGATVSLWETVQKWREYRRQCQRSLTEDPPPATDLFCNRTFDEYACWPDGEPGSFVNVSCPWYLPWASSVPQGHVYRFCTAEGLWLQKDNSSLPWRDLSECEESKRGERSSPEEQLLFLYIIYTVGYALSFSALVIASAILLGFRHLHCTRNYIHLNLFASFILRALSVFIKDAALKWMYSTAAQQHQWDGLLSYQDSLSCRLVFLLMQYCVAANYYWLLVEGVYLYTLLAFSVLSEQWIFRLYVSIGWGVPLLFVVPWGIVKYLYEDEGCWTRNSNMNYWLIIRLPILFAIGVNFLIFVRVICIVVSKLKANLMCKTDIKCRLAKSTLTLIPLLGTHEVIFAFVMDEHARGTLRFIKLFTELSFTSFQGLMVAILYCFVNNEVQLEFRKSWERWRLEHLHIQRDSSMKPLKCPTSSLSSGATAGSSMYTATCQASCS", "assay": "cell-based or functional assay", "units": {"hGLP1 pEC50 (cAMP) mean (n = 9): 11 point curve starting at 500 uM": "pEC50"}, "values": [
      {"binder": "B1", "hGLP1 pEC50 (cAMP) mean (n = 9): 11 point curve starting at 500 uM": 5.2},
      {"binder": "B2", "hGLP1 pEC50 (cAMP) mean (n = 9): 11 point curve starting at 500 uM": 5.4},
      {"binder": "YSQGTFTSDYSKYLDAARAQEFVKWLEDEPKSKSPPPS-NH2", "note": "[Compound A3]", "hGLP1 pEC50 (cAMP) mean (n = 9): 11 point curve starting at 500 uM": 6.7},
      {"binder": "B3", "hGLP1 pEC50 (cAMP) mean (n = 9): 11 point curve starting at 500 uM": 5.3}
    ]},
    {"molecular_target": "T1, human glucagon receptor (GCGR)", "assay": "cell-based or functional assay", "remark": "another data set of the same source", "units": {"hGCGR pEC50 (cAMP) mean (n = 3): 11 point curve starting at 1 nM": "pEC50"}, "values": [
      {"binder": "B4", "hGCGR pEC50 (cAMP) mean (n = 3): 11 point curve starting at 1 nM": 11.9},
      {"binder": "B5", "hGCGR pEC50 (cAMP) mean (n = 3): 11 point curve starting at 1 nM": 12.6},
      {"binder": "B6", "hGCGR pEC50 (cAMP) mean (n = 3): 11 point curve starting at 1 nM": 11.3},
      {"binder": "B7", "hGCGR pEC50 (cAMP) mean (n = 3): 11 point curve starting at 1 nM": 12.4}
    ]},
    {"molecular_target": "T2, human GLP-1 receptor (GLP-1R)", "assay": "cell-based or functional assay", "remark": "another data set of the same source", "units": {"hGLP1 pEC50 (cAMP) mean (n = 3): 11 point curve starting at 1 nM": "pEC50"}, "values": [
      {"binder": "B4", "hGLP1 pEC50 (cAMP) mean (n = 3): 11 point curve starting at 1 nM": "< 9"},
      {"binder": "B5", "hGLP1 pEC50 (cAMP) mean (n = 3): 11 point curve starting at 1 nM": "< 9"},
      {"binder": "B6", "hGLP1 pEC50 (cAMP) mean (n = 3): 11 point curve starting at 1 nM": "< 9"},
      {"binder": "B7", "hGLP1 pEC50 (cAMP) mean (n = 3): 11 point curve starting at 1 nM": "< 9"}
    ]}
  ]
}
